Measured values reported in the supplement of paper PMC10567573.

B1: TRIM63 (parent)
chain: QEKKLSFIEALIQQYQEQLDKSTK

Variants of: B1
Experiment: protein stability index of a GFP-peptide fusion (GPS, HEK-293T) (PSI 1-6); higher = more stable
Conditions: c terminus: a fixed tail appended
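Further: lentivirally expressed fusions sorted by FACS into six bins by GFP to DsRed ratio, PSI derived from sequencing read proportions per bin multiplied by bin number.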

Protein stability index of substitutions, site by site:
D20: L 1.72 | P 2.46 | C 1.69 | M 2.98 | T 2.47 | A 2.5 | Y 1.48 | W 1.83 | Q 1.92 | R 1.77 | N 2.08 | I 1.31 | G 2.13 | V 1.2 | H 1.77 | F 1.66
Q14: T 3.07 | N 3.03 | R 2.2 | M 2.44 | W 1.07 | P 3.86 | Y 1.95 | L 2.89 | V 2.49 | G 3.13 | A 2.43 | C 2.8 | I 2.98 | S 3.5 | H 2.03 | E 2.91 | D 3.17
S22: H 2.7 | A 2.23 | E 3.21 | C 2.26 | I 2.74 | F 3.09 | D 3.1 | G 2.26
Q18: I 2.08 | H 1.79 | F 1.98 | S 2.71 | T 2.93 | A 2.37 | Y 2.49 | G 1.95 | K 2.58 | W 3 | P 3.31 | E 2.51 | C 2.34 | R 2.51 | N 3.28 | M 1.81 | V 2.3 | L 2.25 | D 3.54
Y15: V 2.09 | Q 3.87 | D 4.75 | A 2.61 | F 1.86 | C 2.1 | P 4.56 | L 2.08 | N 3.75 | G 4.41 | R 4.63 | K 3.9 | H 3.38 | I 2.1 | T 2.98 | S 3.52 | W 1
Q16: H 2.57 | G 3.81 | S 2.41 | K 4.03 | V 2.7 | A 2.5 | Y 2.32 | I 1.87 | L 1.49 | W 1.74 | T 2.62 | N 3.05 | C 2 | M 1.48 | E 3.09 | R 2.38 | F 2.07
K21: W 1.63 | D 3.76 | S 2.78 | Y 2.1 | P 1.99 | Q 3 | C 2.29 | M 2.27 | V 3.04 | L 2.17 | A 2.92 | I 2.86 | F 2.54 | G 2.02 | H 2.23 | E 3.26 | T 1.75
L19: D 3.77 | Q 3.21 | A 4.3 | H 3.54 | I 3.19 | P 3.26 | M 3.18 | K 4.08 | W 2.32 | E 3.41 | R 2.91 | F 2.38
Q13: W 1.32 | N 2.79 | F 1.84 | E 3.54 | C 2.67 | K 2.64 | I 2.02 | M 2.02 | Y 2.35 | L 2.1 | T 2.74 | V 1.98 | R 2.7 | G 2.53 | P 4.35 | D 3.54 | A 2.46
I12: N 4.47 | T 4.45 | P 5.67 | R 2.33 | M 2.95 | Y 2.37 | V 2.6 | W 2.11 | S 4.28
E17: F 2.25 | D 3 | W 1.3 | A 2 | V 1.75 | R 1.45 | N 1.81 | C 2.47 | T 2.68 | M 2.08 | S 2.26 | Q 2.65 | H 2.11 | L 1.8 | I 2.14 | K 2.16 | Y 2.84 | G 2.21
